Assay results published in patent US20250277018A1 (INHIBRX BIOSCIENCES, published 2025).

Experiments:
IL-4R = target: T1, IL-4R (UniProt P24394 26-232, limits assumed); experiment: ELISA on coated IL-4R
T1 construct: also called second target
Protocol: The plates were washed 3× times in 0.05% PBST (150 μL/well) and then blocked with Casein in 0.05% PBST (200 μL/well) for 2 hours at RT. The plates were washed 3× times in 0.05% PBST, and 100 μL of titrated test articles in 0.05% PBST were added to the wells of the plate (starting 100 nM, 1:3 dilutions, 11-point titration) and incubated at 4° C. for 1 hour. […] Plates were then washed again before addition of TMB substrate (100 μL/well) that was allowed to reach RT before addition to the plate. The HRP-TMB reaction was allowed to develop for approximately 10 minutes, then TMB stop buffer was added (100 μL/well) and the absorbance was measured at 450 nm on a plate reader with absorbance at 650 nm subtracted (Molecular Devices). The data were plotted and analyzed using GraphPad Prism analysis software.

Rat serum albumin [1] = target: T2, Rat serum albumin (rat); experiment: ELISA, albumin coated, monomeric sdAb titrated
T2 chain: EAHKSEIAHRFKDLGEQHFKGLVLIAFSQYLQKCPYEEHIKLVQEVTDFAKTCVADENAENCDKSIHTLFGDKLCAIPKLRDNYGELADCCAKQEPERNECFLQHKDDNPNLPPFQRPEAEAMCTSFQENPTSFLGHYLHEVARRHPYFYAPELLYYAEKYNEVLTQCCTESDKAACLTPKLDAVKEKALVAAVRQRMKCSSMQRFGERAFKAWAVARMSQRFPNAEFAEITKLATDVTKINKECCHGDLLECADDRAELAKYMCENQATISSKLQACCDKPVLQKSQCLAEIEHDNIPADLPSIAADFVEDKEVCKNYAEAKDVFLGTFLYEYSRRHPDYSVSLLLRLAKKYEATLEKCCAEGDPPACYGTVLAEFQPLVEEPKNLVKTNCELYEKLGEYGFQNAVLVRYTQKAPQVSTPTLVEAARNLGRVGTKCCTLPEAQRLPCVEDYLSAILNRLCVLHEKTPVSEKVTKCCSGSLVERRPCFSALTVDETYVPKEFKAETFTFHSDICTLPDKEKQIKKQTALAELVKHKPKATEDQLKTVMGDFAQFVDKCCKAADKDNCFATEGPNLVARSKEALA

Murine serum albumin [2] = target: Murine serum albumin (mouse); experiment: ELISA, albumin coated, monomeric sdAb titrated
[3] = target: T3, Cynomolgus monkey serum albumin (cynomolgus monkey); experiment: ELISA, albumin coated, monomeric sdAb titrated
T3 chain: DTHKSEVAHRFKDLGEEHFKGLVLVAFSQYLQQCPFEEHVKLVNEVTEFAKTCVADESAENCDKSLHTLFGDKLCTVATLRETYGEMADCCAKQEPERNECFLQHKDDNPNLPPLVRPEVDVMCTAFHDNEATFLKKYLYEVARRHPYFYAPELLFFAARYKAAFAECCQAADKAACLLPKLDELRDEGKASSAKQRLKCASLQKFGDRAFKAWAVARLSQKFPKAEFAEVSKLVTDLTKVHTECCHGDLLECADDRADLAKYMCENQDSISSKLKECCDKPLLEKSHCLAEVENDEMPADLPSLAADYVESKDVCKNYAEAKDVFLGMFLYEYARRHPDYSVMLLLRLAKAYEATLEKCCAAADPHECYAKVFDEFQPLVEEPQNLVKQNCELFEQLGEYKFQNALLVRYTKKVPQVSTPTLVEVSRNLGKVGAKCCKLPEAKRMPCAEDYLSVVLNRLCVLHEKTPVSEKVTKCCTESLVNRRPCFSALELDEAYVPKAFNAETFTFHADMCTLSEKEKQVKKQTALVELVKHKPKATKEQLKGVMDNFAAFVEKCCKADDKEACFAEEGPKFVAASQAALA

Human serum albumin [4] = target: Human serum albumin (human); experiment: ELISA, albumin coated, monomeric sdAb titrated
Rat serum albumin [5] = target: T2, Rat serum albumin; experiment: ELISA on coated recombinant albumin, pH 7.4, anti-human IgG1 HRP; apparent affinity
Murine serum albumin [6] = target: Murine serum albumin (mouse); experiment: as above
[7] = target: T3, Cynomolgus monkey serum albumin; experiment: as above
Human serum albumin [8] = target: Human serum albumin (human); experiment: as above

Chain of Murine serum albumin (mouse) (chain, as listed by the source): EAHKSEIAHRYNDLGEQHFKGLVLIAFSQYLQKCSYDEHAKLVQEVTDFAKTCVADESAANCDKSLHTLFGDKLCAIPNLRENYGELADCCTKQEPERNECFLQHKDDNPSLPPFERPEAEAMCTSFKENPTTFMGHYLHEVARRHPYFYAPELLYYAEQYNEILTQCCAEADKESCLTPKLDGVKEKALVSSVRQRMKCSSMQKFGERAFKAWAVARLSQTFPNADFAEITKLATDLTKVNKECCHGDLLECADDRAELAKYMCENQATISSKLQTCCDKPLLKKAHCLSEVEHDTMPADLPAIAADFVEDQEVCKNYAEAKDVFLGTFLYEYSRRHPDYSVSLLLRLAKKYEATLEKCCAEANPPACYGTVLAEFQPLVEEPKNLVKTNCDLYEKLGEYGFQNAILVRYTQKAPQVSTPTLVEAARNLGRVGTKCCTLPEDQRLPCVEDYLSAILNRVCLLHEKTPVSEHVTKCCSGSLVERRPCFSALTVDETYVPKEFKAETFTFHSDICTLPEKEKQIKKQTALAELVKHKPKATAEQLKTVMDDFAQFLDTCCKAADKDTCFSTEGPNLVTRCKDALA

B1: cx12584 (VHH)
chain: GGGGDKTHTCPPCPAPGGPSVFLFPPKPKDTLMISRTPEVTCVVVDVSHEDPEVKFNWYVDGVEVHNAKTKPREEQYNSTYRVVSVLTVLHQDWLNGKEYKCKVSNKALPAPIEKTISKAKGQPREPQVYTLPPSRDELTKNQVSLTCLVKGFYPSDIAVEWESNGQPENNYKTTPPVLDSDGSFFLYSKLTVDKSRWQQGNVFSCSVMHEALHNHYTQKSLSLSPGGGSGGGSGGGSEVQLVESGGGEVQPGGSLRLSCAASGFTFSTSGMVWVRQAPGKGLEWVSTISDDARITVYAESVKGRFTISRDNAKNTVYLQMNSLRAEDTAVYYCATYRAGSRIGSYEDYYRGQGTLVTVKP
notes: Homodimer; also called Fc Region-GS12-VHH
binding result (IL-4R): no binding (tested: 100 nM (top of titration))

B2: cx5009, hz4A01v51 VHH-hIgG1-xELL-NNT-Fc (VHH)
VHH: EVQLVESGGGEVQPGGSLRLSCAASGFTFSTSGMVWVRQAPGKGLEWVSTISDDARITVYAESVKGRFTISRDNAKNTVYLQMNSLRAEDTAVYYCATYRAGSRIGSYEDYYRGQGTLVTVKP
notes: also called Hz4A01v51-NNT-hFc; 4A01v51-NNT-hFc
Kd (Rat serum albumin [1]): < 300 pM
maximal binding (Rat serum albumin [1]): > 90%
Kd (Murine serum albumin [2]): < 300 pM
maximal binding (Murine serum albumin [2]): > 90%
Kd [3]: < 300 pM
maximal binding [3]: > 90%
Kd (Human serum albumin [4]): < 300 pM
maximal binding (Human serum albumin [4]): > 90%
Kd (Rat serum albumin [5]): ~200 pM
Kd (Murine serum albumin [6]): ~200 pM
Kd [7]: ~200 pM
Kd (Human serum albumin [8]): ~200 pM

B3: cx12583 (VHH)
chain: GGGGDKTHTCPPCPAPGGPSVFLFPPKPKDTLMISRTPEVTCVVVDVSHEDPEVKFNWYVDGVEVHNAKTKPREEQYNSTYRVVSVLTVLHQDWLNGKEYKCKVSNKALPAPIEKTISKAKGQPREPQVYTLPPSRDELTKNQVSLTCLVKGFYPSDIAVEWESNGQPENNYKTTPPVLDSDGSFFLYSKLTVDKSRWQQGNVFSCSVMHEALHNHYTQKSLSLSPGSGGGSEVQLVESGGGEVQPGGSLRLSCAASGFTFSTSGMVWVRQAPGKGLEWVSTISDDARITVYAESVKGRFTISRDNAKNTVYLQMNSLRAEDTAVYYCATYRAGSRIGSYEDYYRGQGTLVTVKP
notes: Homodimer; also called Fc Region-GS6-VHH
binding result (IL-4R): no binding (tested: 100 nM (top of titration))
